According to patent US20180028516A1, “METHODS AND DEVICES FOR THE TREATMENT OF OCULAR DISEASES IN HUMAN SUBJECTS” (CLEARSIDE BIOMEDICAL, INC., priority 2012, published 2018):
One block for each molecule: values may come before it.

Tests used:
[1] = Delivery and clearance of sodium fluorescein from the suprachoroidal space in live rabbits (Example 5); format: in vivo, rabbit; settings: SCS injection
Protocol: The delivery of a fluorescent molecule (sodium fluorescein) to the suprachoroidal space was evaluated using rabbits according to approved live animal experimental protocols. A one dimensional scan of the eye (through line of sight) was taken within the first five minutes after injection to determine the dispersion of the fluorescent molecule in the eye (FIG. 14). The y-axis indicates the fluorescent intensity (i.e., the concentration) and the x-axis represents the position in the eye from front (160) to back (0). Thus, the results illustrate that within the first 5 minutes after injection, the fluorescein had already flowed through the suprachoroidal space to the back of the eye. with some remaining at the initial insertion site.
Similar scans were taken to evaluate the rate of clearance of fluorescein from the suprachoroidal space over time (FIG. 15). The fluorescent intensity was measured in two regions of the eye (the suprachoroidal space and mid-vitreous region) over time. The results illustrate that the bulk of the material injected remains in the suprachoroidal space without passing into the mid-vitreous region and that the material substantially cleared the suprachoroidal space within 24 hours.

[2] = Visual acuity of patients after suprachoroidal bevacizumab (Example 14); format: in vivo, human
Protocol: (§1) The safety and tolerabilty of a single microneedle injection of bevacizumab into the suprachoroidal space (SCS) using a micronocedle was evaluated. Four adult patients with choroidal neovascularization (CNV), secondary to wet age-related macular degeneration (AMD), were enrolled in a phase 1, single-center, open-label study. Each subject provided informed consent and was screened for eligibility. […] Treated patients remained in the clinic for 4 hours for observation and then retumed multiple times for follow-up during a 2 month period. Major safety examinations included intraocular pressure (IOP), angiograms, biomicroscopy, indirect ophthalmoscopy, fundus photography, optical coherence tomography (OCT), visual acuity (VA) (Table 8), and assessment of pain.

[3] = Phase 1 safety and tolerability of suprachoroidal bevacizumab in patients with CNV secondary to wet AMD (Example 14); format: in vivo, human
Protocol: as §1

- time to substantial clearance from the suprachoroidal space ([1]; fluorescent intensity): ≤ 24 h
- time for fluorescein to flow through the suprachoroidal space to the back of the eye ([1]; one dimensional fluorescence scan): ≤ 5 min
Molecule: O=C1OC2(c3ccc(O)cc3Oc3cc(O)ccc32)c2ccccc21 [fluorescein, sodium fluorescein]

Molecule: bevacizumab: humanized monoclonal antibody, angiogenesis inhibitor (Avastin)
- Visual Acuity ([2]; Patient 1, 28 day post dose): 20/40
- Visual Acuity ([2]; Patient 1, 56 day post dose): 20/40
- Visual Acuity ([2]; Patient 1, Pre-does): 20/80
- Visual Acuity ([2]; Patient 1, Screening): 20/40
- Visual Acuity ([2]; Patient 2, 28 day post dose): 20/20
- Visual Acuity ([2]; Patient 2, 56 day post dose): 20/20
- Visual Acuity ([2]; Patient 2, Pre-does): 20/40
- Visual Acuity ([2]; Patient 2, Screening): 20/40
- Visual Acuity ([2]; Patient 3, 28 day post dose): 20/250
- Visual Acuity ([2]; Patient 3, 56 day post dose): 20/250
- Visual Acuity ([2]; Patient 3, Pre-does): 20/320
- Visual Acuity ([2]; Patient 3, Screening): 20/320
- Visual Acuity ([2]; Patient 4, 28 day post dose): 20/400
- Visual Acuity ([2]; Patient 4, 56 day post dose): 20/400
- Visual Acuity ([2]; Patient 4, Pre-does): 20/400
- Visual Acuity ([2]; Patient 4, Screening): 20/400
- effect on IOP, OCT or VA ([3]; 100 μL bevacizumab SCS, any subject): No negative effect
- adverse events related to bevacizumab or the method of administration ([3]; 100 μL bevacizumab SCS, ophthalmic examinations): no unexpected or serious adverse events
- level of pain recorded for the administration ([3]; 100 μL bevacizumab SCS, topical anesthesia, four patients): moderate
- intraretinal fluid (OCT) ([3]; patient number 3, 56 days after injection vs before injection): Decrease
- rescue therapy or reinjection ([3]; two months following treatment): No patients required rescue therapy or reinjection
